T1: OX40 (CD134) (Mus musculus, UniProt P47741 P47741:20-211)
T1 sequence: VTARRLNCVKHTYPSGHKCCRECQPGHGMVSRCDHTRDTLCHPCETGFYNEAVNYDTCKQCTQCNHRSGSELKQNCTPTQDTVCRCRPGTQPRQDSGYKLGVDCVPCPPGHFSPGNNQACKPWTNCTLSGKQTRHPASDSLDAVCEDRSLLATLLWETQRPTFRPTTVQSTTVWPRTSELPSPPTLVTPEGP

B1: OX40 aptamer SEQ 79 (ssRNA)
RNA: GGGAGGACGAUGCGGCUUUAAUCCUCGCACUCAGCGCGCAUCACCCUUGACAUCACAGACGACUCGCUGAGGAUCCGAGA
modifications: 2'-F pyrimidines, 2'-OH purines
B2: OX40 aptamer SEQ 83 (ssRNA)
RNA: GGGAGGACGAUGCGGAUACCACCUAGUGUGAGGAACCCCGCUUCCUAGACUGCGCAGACGACUCGCUGAGGAUCCGAGA
modifications: 2'-F pyrimidines, 2'-OH purines
B3: OX40 aptamer SEQ 77 (ssRNA)
RNA: GGGAGGACGAUGCGGCAGUCUGCAUCGUAGGAAUCGCCACCGUAUACUUUCCCACCAGACGACUCGCUGAGGAUCCGAGA
modifications: 2'-F pyrimidines, 2'-OH purines
B4: OX40 aptamer SEQ 86 (ssRNA)
RNA: GGGAGGACGAUGCGGCCGUCAACCAAUCUCUCGCUUCACACGGCCAUGCCUCCAUCAGACGACUCGCUGAGGAUCCGAGA
modifications: 2'-F pyrimidines, 2'-OH purines
B5: OX40 aptamer SEQ 81 (ssRNA)
RNA: GGGAGGACGAUGCGGAUACCAGCGAAUAACUCGCUGAGGAACCCGACUCACAAACAGACGACUCGCUGAGGAUCCGAGA
modifications: 2'-F pyrimidines, 2'-OH purines
B6: OX40 aptamer SEQ 78 (ssRNA)
RNA: GGGAGGACGAUGCGGAUACCAGGAUCACAUCCUGAGGAACCCCGGCUCCCAACCUCAGACGACUCGCUGAGGAUCCGAGA
modifications: 2'-F pyrimidines, 2'-OH purines
B7: OX40 aptamer SEQ 82 (ssRNA)
RNA: GGGAGGACGAUGCGGCUUUUGAAUGCUCCCUUCACUCCAAGCGGCAGCCUAUCGUCAGACGACUCGCUGAGGAUCCGAGA
modifications: 2'-F pyrimidines, 2'-OH purines
B8: OX40 aptamer SEQ 85 (ssRNA)
RNA: GGGAGGACGAUGCGGCACUAACUCCAGCGACUCCAUCGCCAUUCCAACUCUACGCCAGACGACUCGCUGAGGAUCCGAGA
modifications: 2'-F pyrimidines, 2'-OH purines
B9: OX40 aptamer SEQ 84 (ssRNA)
RNA: GGGAGGACGAUGCGGCAACCCAUCCAUACCAACAUGGAGCUAAUGUUAGUCAACGCAGACGACUCGCUGAGGAUCCGAGA
modifications: 2'-F pyrimidines, 2'-OH purines
B10: OX40 aptamer SEQ 80 (ssRNA)
RNA: GGGAGGACGAUGCGGCAAACCAGCUAUUUCCUGAGGUACCCCGGCUCUCCAUGGCAGACGACUCGCUGAGGAUCCGAGA
modifications: 2'-F pyrimidines, 2'-OH purines

target: T1, OX40 (CD134); assay: filter; 20 mM Hepes pH 7.4, 150 mM NaCl, 2 mM CaCl2; Kd not given; settings: tags: human IgG Fc fusion; chain copies: 2; label: 5' 32P
Description: Eleven rounds of selection were performed with increasing stringency throughout the selection process by increasing the RNA: OX40 protein ratio in the selection reaction. Aptamers from rounds 9 and 11 DNA were cloned into a plasmid vector, and single colonies were sequenced and amplified by low cycle PCR amplification following by in vitro transcription. Binding constants for the clones were determined using filter-binding assays in a buffer composed of 20 mM Hepes pH 7.4, 150 mM NaCl, 2 mM CaCl2. To determine the affinities of monomeric aptamers (e.g., which may be expressed as Kd or dissociation constant), serial dilutions of murine OX40 IgG Fc fusion protein, human IgG1, or protein G were incubated with monomeric 5′ ³²P radiolabeled aptamers at 2000 cpm/μL. The mixture was passed over a stack of membranes consisting of a nitrocellulose membrane and nylon membrane through application of a vacuum. The membranes were exposed to a phosphoimager screen, scanned and quantitated using a phosphoimager. Finally, differential fractions of RNA bound were calculated and graphed using commercially available software, and affinity was then expressed as Kd. The predicted secondary structure of the resultant nucleic acid aptamers was determined by utilizing the algorithm m-fold using default settings for folding parameters. Illustrative examples of the nucleic acid aptamers isolated from the aforementioned selections against OX40 are shown in Table 2; wherein nucleic acid sequences comprising SEQ ID NOs: […] represent the variable regions from clones with binding specificity to OX40; and a nucleic acid sequence comprising SEQ ID:87 represents the RNA library constant regions, with a constant region (e.g., nucleic acid bases in positions 1-41 of […]) flanking the 5′ end of the variable regions, a constant region (e.g., nucleic acid bases in positions 82-106 of SEQ ID NO:87) flanking the 3′end of the variable regions, and the variable regions being designated by N(40) in Table 2 (nucleic acid bases in positions 42-81 of SEQ ID NO:87). It is understood by those skilled in the art that the variable regions may be flanked by constant regions other than those comprising the constant regions depicted in SEQ ID NO: 87, while still retaining binding activity for OX40.

Binder	binding result
B1	binds
B2	binds
B3	binds
B4	binds
B5	binds
B6	binds
B7	binds
B8	binds
B9	binds
B10	binds

— US20100076060, “Aptamers as agonists” (DUKE UNIVERSITY, published 2010)
